The supplement of paper PMC10567573

B1: PDS5B (parent)
chain: IYKKYALQSAAGKDAAKQIAWIKD

Variants of: B1
Assay: protein stability index of a GFP-peptide fusion (GPS, HEK-293T) (PSI 1-6); higher = more stable
Details: c terminus: a fixed tail appended
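Further: lentivirally expressed fusions sorted by FACS into six bins by GFP to DsRed ratio, PSI derived from sequencing read proportions per bin multiplied by bin number.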

| Variant | protein stability index |
| --- | --- |
| IYKKYALQSAAGKDAAKQIAWIAD [K23A] | 2.11 |
| IYKKYALQSAAGKDAAKQIAWIID [K23I] | 2.64 |
| IYKKYALQSAAGKDAAKQIAWIQD [K23Q] | 2.23 |
| IYKKYALQSAAGKDAAKQIAWIND [K23N] | 2.24 |
| IYKKYALQSAAGKDAAKQIAWIHD [K23H] | 2.55 |
| IYKKYALQSAAGKDAAKQIAWIDD [K23D] | 2.98 |
| IYKKYALQSAAGKDAAKQIAWILD [K23L] | 3.36 |
| IYKKYALQSAAGKDAAKQIAWIVD [K23V] | 1.54 |
| IYKKYALQSAAGKDAAKQIAWIYD [K23Y] | 2.44 |
| IYKKYALQSAAGKDAAKQIAWIED [K23E] | 2.53 |
| IYKKYALQSAAGKDAAKQIAWISD [K23S] | 2.98 |
| IYKKYALQSAAGKDAAKQIAWIRD [K23R] | 1.52 |
| IYKKYALQSAAGKDAAKQIAWIMD [K23M] | 2 |
| IYKKYALQSAAGKDAAKQIAWIGD [K23G] | 2.68 |
| IYKKYALQSAAGKDAAKQIAWIPD [K23P] | 2.36 |
| IYKKYALQSAAGKDAAKQIAWICD [K23C] | 1.47 |
| IYKKYALQSAAGKDAAKQIAWIWD [K23W] | 2.62 |
| IYKKYALQSAAGKDAAKQIAWIFD [K23F] | 2.39 |
| IYKKYALQSAAGKDAAKQIAWITD [K23T] | 2.18 |
| IYKKYALQSAAGKDAAKQIAWIKG [D24G] | 2.08 |
| IYKKYALQSAAGKDAAKQIAWIKF [D24F] | 2.15 |
| IYKKYALQSAAGKDAAKQIAWIKA [D24A] | 2 |
| IYKKYALQSAAGKDAAKQIAWIKI [D24I] | 1.76 |
| IYKKYALQSAAGKDAAKQIAWIKT [D24T] | 1.94 |

| Variant | protein stability index |
| --- | --- |
| IYKKYALQSAAGKDAAKQIAWIKP [D24P] | 2.79 |
| IYKKYALQSAAGKDAAKQIAWIKW [D24W] | 1.66 |
| IYKKYALQSAAGKDAAKQIAWIKY [D24Y] | 1.14 |
| IYKKYALQSAAGKDAAKQIAWIKQ [D24Q] | 1.7 |
| IYKKYALQSAAGKDAAKQIAWIKV [D24V] | 2.52 |
| IYKKYALQSAAGKDAAKQIAWIKK [D24K] | 2.19 |
| IYKKYALQSAAGKDAAKQIAWIKS [D24S] | 2.42 |
| IYKKYALQSAAGKDAAKQIAWIKN [D24N] | 2.24 |
| IYKKYALQSAAGKDAAKQIAWIKM [D24M] | 1.59 |
| IYKKYALQSAAGKDAAKQIAWIKH [D24H] | 2.14 |
| IYKKYALQSAAGKDAAKQIAWIKE [D24E] | 1.75 |
| IYKKYALQSAAGKDAAKQIAWIKR [D24R] | 1.97 |
| IYKKYALQSAAGKDAAKQIAWIKC [D24C] | 2.08 |
| IYKKYALQSAAGKDAAKQIAWIKL [D24L] | 2.02 |
| IYKKYALQSAAGKDAAKQIACIKD [W21C] | 3.02 |
| IYKKYALQSAAGKDAAKQIAQIKD [W21Q] | 3.09 |
| IYKKYALQSAAGKDAAKQIASIKD [W21S] | 3.19 |
| IYKKYALQSAAGKDAAKQIATIKD [W21T] | 3.55 |
| IYKKYALQSAAGKDAAKQIAIIKD [W21I] | 2.88 |
| IYKKYALQSAAGKDAAKQIAHIKD [W21H] | 2.75 |
| IYKKYALQSAAGKDAAKQIAKIKD [W21K] | 2.65 |
| IYKKYALQSAAGKDAAKQIAAIKD [W21A] | 3.22 |
| IYKKYALQSAAGKDAAKQIARIKD [W21R] | 2.74 |
| IYKKYALQSAAGKDAAKQIAVIKD [W21V] | 2.72 |

| Variant | protein stability index |
| --- | --- |
| IYKKYALQSAAGKDAAKQIAYIKD [W21Y] | 2.42 |
| IYKKYALQSAAGKDAAKQIAEIKD [W21E] | 2.91 |
| IYKKYALQSAAGKDAAKQIANIKD [W21N] | 3.83 |
| IYKKYALQSAAGKDAAKQIAGIKD [W21G] | 2.92 |
| IYKKYALQSAAGKDAAKQIADIKD [W21D] | 3.05 |
| IYKKYALQSAAGKDAAKQIAMIKD [W21M] | 3.2 |
| IYKKYALQSAAGKDAAKQIAFIKD [W21F] | 2.31 |
| IYKKYALQSAAGKDAAKQIALIKD [W21L] | 2.19 |
| IYKKYALQSAAGKDAAKQIAPIKD [W21P] | 3.57 |
| IYKKYALQSAAGKDAAKQIAWNKD [I22N] | 3.26 |
| IYKKYALQSAAGKDAAKQIAWHKD [I22H] | 3.12 |
| IYKKYALQSAAGKDAAKQIAWFKD [I22F] | 2.29 |
| IYKKYALQSAAGKDAAKQIAWLKD [I22L] | 2.33 |
| IYKKYALQSAAGKDAAKQIAWYKD [I22Y] | 2.52 |
| IYKKYALQSAAGKDAAKQIAWCKD [I22C] | 2.75 |
| IYKKYALQSAAGKDAAKQIAWMKD [I22M] | 2.14 |
| IYKKYALQSAAGKDAAKQIAWQKD [I22Q] | 3.27 |
| IYKKYALQSAAGKDAAKQIAWGKD [I22G] | 2.8 |
| IYKKYALQSAAGKDAAKQIAWTKD [I22T] | 3.31 |
| IYKKYALQSAAGKDAAKQIAWEKD [I22E] | 4.49 |
| IYKKYALQSAAGKDAAKQIAWVKD [I22V] | 3.21 |
| IYKKYALQSAAGKDAAKQIAWKKD [I22K] | 3.21 |
| IYKKYALQSAAGKDAAKQIAWAKD [I22A] | 3.14 |
| IYKKYALQSAAGKDAAKQIAWDKD [I22D] | 3.78 |

| Variant | protein stability index |
| --- | --- |
| IYKKYALQSAAGKDAAKQIAWWKD [I22W] | 2.28 |
| IYKKYALQSAAGKDAAKQIAWSKD [I22S] | 3.09 |
| IYKKYALQSAAGKDAAKQIAWPKD [I22P] | 3.1 |
| IYKKYALQSAAGKDAAKQIAWRKD [I22R] | 3.43 |
| IYKKYALQSAAGKDAARQIAWIKD [K17R] | 2.67 |
| IYKKYALQSAAGKDAAPQIAWIKD [K17P] | 2.51 |
| IYKKYALQSAAGKDAAQQIAWIKD [K17Q] | 2.19 |
| IYKKYALQSAAGKDAAWQIAWIKD [K17W] | 1.63 |
| IYKKYALQSAAGKDAATQIAWIKD [K17T] | 2.92 |
| IYKKYALQSAAGKDAAVQIAWIKD [K17V] | 2.12 |
| IYKKYALQSAAGKDAAYQIAWIKD [K17Y] | 1.66 |
| IYKKYALQSAAGKDAANQIAWIKD [K17N] | 2.51 |
| IYKKYALQSAAGKDAASQIAWIKD [K17S] | 2.67 |
| IYKKYALQSAAGKDAAKQQAWIKD [I19Q] | 2.52 |
| IYKKYALQSAAGKDAAKQYAWIKD [I19Y] | 1.99 |
| IYKKYALQSAAGKDAAKQMAWIKD [I19M] | 1.97 |
| IYKKYALQSAAGKDAAKQRAWIKD [I19R] | 2.38 |
| IYKKYALQSAAGKDAAKQSAWIKD [I19S] | 2.6 |
| IYKKYALQSAAGKDAAKQAAWIKD [I19A] | 2.48 |
| IYKKYALQSAAGKDAAKQDAWIKD [I19D] | 3.79 |
| IYKKYALQSAAGKDAAKQFAWIKD [I19F] | 2.29 |
| IYKKYALQSAAGKDAAKQGAWIKD [I19G] | 3.46 |
| IYKKYALQSAAGKDAAKQKAWIKD [I19K] | 3.01 |
| IYKKYALQSAAGKDAAKQPAWIKD [I19P] | 3.11 |

| Variant | protein stability index |
| --- | --- |
| IYKKYALQSAAGKDAAKQVAWIKD [I19V] | 2.49 |
| IYKKYALQSAAGKDAAKQNAWIKD [I19N] | 3.59 |
| IYKKYALQSAAGKDAAKQLAWIKD [I19L] | 1.81 |
| IYKKYALQSAAGKDAAKQTAWIKD [I19T] | 2.77 |
| IYKKYALQSAAGKDAAKQCAWIKD [I19C] | 2.38 |
| IYKKYALQSAAGKDAAKQWAWIKD [I19W] | 1.93 |
| IYKKYALQSAAGKDAAKQHAWIKD [I19H] | 3.34 |
| IYKKYALQSAAGKDAAKQIRWIKD [A20R] | 1.84 |
| IYKKYALQSAAGKDAAKQIEWIKD [A20E] | 2.66 |
| IYKKYALQSAAGKDAAKQIGWIKD [A20G] | 2.25 |
| IYKKYALQSAAGKDAAKQIDWIKD [A20D] | 3.39 |
| IYKKYALQSAAGKDAAKQITWIKD [A20T] | 2.23 |
| IYKKYALQSAAGKDAAKQIYWIKD [A20Y] | 2.22 |
| IYKKYALQSAAGKDAAKQIPWIKD [A20P] | 2.66 |
| IYKKYALQSAAGKDAAKQIKWIKD [A20K] | 2.26 |
| IYKKYALQSAAGKDAAKQILWIKD [A20L] | 1.89 |
| IYKKYALQSAAGKDAAKQIVWIKD [A20V] | 2.08 |
| IYKKYALQSAAGKDAAKQIHWIKD [A20H] | 2.07 |
| IYKKYALQSAAGKDAAKQIWWIKD [A20W] | 2.68 |
| IYKKYALQSAAGKDAAKQINWIKD [A20N] | 2.68 |
| IYKKYALQSAAGKDAAKQIFWIKD [A20F] | 1.95 |
| IYKKYALQSAAGKDAAKQICWIKD [A20C] | 2.18 |
| IYKKYALQSAAGKDAAKQIQWIKD [A20Q] | 2.29 |
| IYKKYALQSAAGKDAAKQIIWIKD [A20I] | 2.31 |

| Variant | protein stability index |
| --- | --- |
| IYKKYALQSAAGKDAAKQISWIKD [A20S] | 2.4 |
| IYKKYALQSAAGKDAAKQIMWIKD [A20M] | 2.02 |
| IYKKYALQSAAGKDAAKHIAWIKD [Q18H] | 2.43 |
| IYKKYALQSAAGKDAAKEIAWIKD [Q18E] | 2.45 |
| IYKKYALQSAAGKDAAKNIAWIKD [Q18N] | 2.49 |
| IYKKYALQSAAGKDAAKGIAWIKD [Q18G] | 2.45 |
| IYKKYALQSAAGKDAAKSIAWIKD [Q18S] | 2.58 |
| IYKKYALQSAAGKDAAKRIAWIKD [Q18R] | 2.24 |
| IYKKYALQSAAGKDAAKKIAWIKD [Q18K] | 2.6 |
| IYKKYALQSAAGKDAAKYIAWIKD [Q18Y] | 1.33 |
| IYKKYALQSAAGKDAAKFIAWIKD [Q18F] | 2.33 |
| IYKKYALQSAAGKDAAKAIAWIKD [Q18A] | 2.06 |
| IYKKYALQSAAGKDAAKTIAWIKD [Q18T] | 1.6 |
| IYKKYALQSAAGKDAAKVIAWIKD [Q18V] | 2.07 |
| IYKKYALQSAAGKDAAKPIAWIKD [Q18P] | 2.37 |
| IYKKYALQSAAGKDAAKDIAWIKD [Q18D] | 2.83 |
| IYKKYALQSAAGKDAAKIIAWIKD [Q18I] | 2.4 |
| IYKKYALQSAAGKDAAKCIAWIKD [Q18C] | 1.75 |
| IYKKYALQSAAGKDAAKLIAWIKD [Q18L] | 1.99 |
| IYKKYALQSAAGKDAAKMIAWIKD [Q18M] | 2.38 |
| IYKKYALQSAAGKDAAKWIAWIKD [Q18W] | 2.18 |
